Source: paper PMC11838199

Biological target: C12ORF57-FLAG (human) (UniProt Q99622)
Test: co-IP

Chain of UniProt Q99622 (Q99622 whole entry): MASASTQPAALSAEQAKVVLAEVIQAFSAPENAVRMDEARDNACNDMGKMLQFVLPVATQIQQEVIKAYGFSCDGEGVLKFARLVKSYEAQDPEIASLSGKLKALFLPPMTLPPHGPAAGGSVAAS

| Substance | change in CAMK4 co-precipitated with C12ORF57-FLAG, against wild type CAMK4 [%] |
| --- | --- |
| CAMK4 lacking the autoinhibitory domain (NAI) (from UniProt Q16566 1-473) (enzyme) | -65.8 |
| CAMK4 lacking the calmodulin binding domain (NCB) (from UniProt Q16566 1-473) (enzyme) | -6.13 |
